From US20250340653A1 come the findings set out here.

Usually EC50 stands for the concentration needed to bring the measured effect to its halfway point. Low readings indicate a more potent agent, high ones a less potent agent.

The target in the test is Canine IL-31RA ECD-10His (canine). Put plainly: ELISA, IL-31RA coated at 1 ug/mL, biotinylated IL-31 titrated, HRP-streptavidin. For orientation: An ELISA detects its analyte on a solid surface through an enzyme-linked reagent.
Chain of Canine IL-31RA ECD-10His (canine) (chain, as listed by the source limits assumed): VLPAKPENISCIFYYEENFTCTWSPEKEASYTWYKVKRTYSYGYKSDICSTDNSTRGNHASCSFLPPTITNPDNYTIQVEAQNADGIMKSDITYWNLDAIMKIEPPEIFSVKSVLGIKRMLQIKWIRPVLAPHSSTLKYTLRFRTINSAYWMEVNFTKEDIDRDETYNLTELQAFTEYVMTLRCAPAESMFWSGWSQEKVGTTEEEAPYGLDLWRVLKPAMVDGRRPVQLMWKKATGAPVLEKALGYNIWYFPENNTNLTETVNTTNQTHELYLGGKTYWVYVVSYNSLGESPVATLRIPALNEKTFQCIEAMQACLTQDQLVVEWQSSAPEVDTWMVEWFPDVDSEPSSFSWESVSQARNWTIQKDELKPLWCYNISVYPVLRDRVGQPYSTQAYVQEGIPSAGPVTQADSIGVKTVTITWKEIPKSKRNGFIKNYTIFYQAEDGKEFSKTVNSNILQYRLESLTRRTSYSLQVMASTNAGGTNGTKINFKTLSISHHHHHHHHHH

canine IL-31 (ligand) displayed a concentration giving a half-maximal response (EC50) of 0.55 ng/mL.
